Measured values taken from paper PMC8565734, “Construction of ferritin hydrogels utilizing subunit–subunit interactions” (PLoS ONE, 2021).

Biological target: the molecule itself
Test: SEC; Superdex 200 increase 10/300 GL, 50 mM potassium phosphate buffer, pH 7.0, 4°C; solution obtained after heating the apoferritin hydrogel at 90°C for 30 min; sizes estimated from a standard curve of standard proteins

B1: horse L apoferritin without eight N-terminal residues (Fer8) (domain or fragment, UniProt P02791 9-175, looked up)
chain: YSTEVEAAVNRLVNLYLRASYTYLSLGFYFDRDDVALEGVCHFFRELAEEKREGAERLLKMQNQRGGRALFQDLQKPSQDEWGTTLDAMKAAIVLEKSLNQALLDLHALGSAQADPHLCDFLESHFLDEEVKLIKKMGDHLTNIQRLVGSQAGLGEYLFERLTLKHD
notes: horse L ferritin (ferritin light chain), printed as 'without eight N-terminal residues'; theoretical [Fer8 subunit + H+] = 19148; The limit 9-end follows from 'without eight N-terminal residues'; also called recombinant horse apoferritin; Fer8 subunit; source: E. coli Nova blue cells (plasmid pKIT8), purified (heat 60°C, Q Sepharose, HiTrap Q HP, SEC); gelled by acid denaturation and …
- stoichiometry N: 24
